The target in this test is IgG1 Fc L234C/E382A ("less-crystallisable" Fc with L234C exchange). Kind of test: crystal structure.

B1: EndoS2 (38-843) D184A/E186L, inactive exchange variant (enzyme)
chain: EKTVQTGKTDQQVGAKLVQEIREGKRGPLYAGYFRTWHDRASTGIDGKQQHPENTMAEVPKEVDILFVFHDHTASDSPFWSELKDSYVHKLHQQGTALVQTIGVNELNGRTGLSKDYPDTPEGNKALAAAIVKAFVTDRGVDGLDIAILHEFTNKRTPEEDARALNVFKEIAQLIGKNGSDKSKLLIMDTTLSVENNPIFKGIAEDLDYLLRQYYGSQGGEAEVDTINSDWNQYQNYIDASQFMIGFSFFEESASKGNLWFDVNEYDPNNPEKGKDIEGTRAKKYAEWQPSTGGLKAGIFSYAIDRDGVAHVPSTYKNRTSTNLQRHEVDNISHTDYTVSRKLKTLMTEDKRYDVIDQKDIPDPALREQIIQQVGQYKGDLERYNKTLVLTGDKIQNLKGLEKLSKLQKLELRQLSNVKEITPELLPESMKKDAELVMVGMTGLEKLNLSGLNRQTLDGIDVNSITHLTSFDISHNSLDLSEKSEDRKLLMTLMEQVSNHQKITVKNTAFENQKPKGYYPQTYDTKEGHYDVDNAEHDILTDFVFGTVTKRNTFIGDEEAFAIYKEGAVDGRQYVSKDYTYEAFRKDYKGYKVHLTASNLGETVTSKVTATTDETYLVDVSDGEKVVHHMKLNIGSGAIMMENLAKGAKVIGTSGDFEQAKKIFDGEKSDRFFTWGQTNWIAFDLGEINLAKEWRLFNAETNTEIKTDSSLNVAKGRLQILKDTTIDLEKMDIKNRKEYLSNDENWTDVAQMDDAKAIFNSKLSNVLSRYWRFCVDGGASSYYPQYTELQILGQRLSNDVANTLKD
In turn, B1 gave a stoichiometry N (EndoS2 molecules per Fc homodimer) of 2.

The record behind these values is article doi:10.1101/2023.08.15.553389.
